Biological target: T1, J-binding protein 1 (JBP1) (Crithidia fasciculata) (UniProt Q9U6M2)
T1 sequence: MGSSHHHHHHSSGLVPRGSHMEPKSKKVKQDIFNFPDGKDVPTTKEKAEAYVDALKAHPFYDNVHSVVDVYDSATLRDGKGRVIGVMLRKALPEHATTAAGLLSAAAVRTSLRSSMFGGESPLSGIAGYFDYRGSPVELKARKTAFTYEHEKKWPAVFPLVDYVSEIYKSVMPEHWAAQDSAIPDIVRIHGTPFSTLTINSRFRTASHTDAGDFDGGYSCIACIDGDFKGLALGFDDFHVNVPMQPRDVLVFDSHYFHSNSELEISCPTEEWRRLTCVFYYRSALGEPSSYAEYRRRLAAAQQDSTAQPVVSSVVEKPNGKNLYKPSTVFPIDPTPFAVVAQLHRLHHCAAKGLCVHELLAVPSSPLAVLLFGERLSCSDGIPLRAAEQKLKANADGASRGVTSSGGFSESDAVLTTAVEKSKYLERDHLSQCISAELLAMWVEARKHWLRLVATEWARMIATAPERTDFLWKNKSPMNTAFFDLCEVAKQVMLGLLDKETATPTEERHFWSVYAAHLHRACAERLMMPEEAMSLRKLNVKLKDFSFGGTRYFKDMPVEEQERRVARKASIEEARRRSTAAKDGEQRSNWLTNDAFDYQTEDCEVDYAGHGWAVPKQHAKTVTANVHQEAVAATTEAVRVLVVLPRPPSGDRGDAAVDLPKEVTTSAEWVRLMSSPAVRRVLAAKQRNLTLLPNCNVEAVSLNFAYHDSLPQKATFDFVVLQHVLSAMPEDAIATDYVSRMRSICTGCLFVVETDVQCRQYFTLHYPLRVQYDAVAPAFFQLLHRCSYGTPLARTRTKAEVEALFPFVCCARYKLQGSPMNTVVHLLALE
Assay: pulldown
Details: beta-glucosyl-5hmC in place of all C (outside primers); 132 ng JBP1 beads, 10 ng DNA, 150 mM NaCl, 10 mM Tris pH 8.0, 2 mM EDTA, room temperature

pUC18 2.7 kb PCR product, beta-glu-5hmC
binding signal (% DNA pulled down): < 6

From US9677128
